Data reported in patent publication EP3583122A1 (dated 2019).

T1: TAFV GP on VSV pseudotype particles (Tai Forest virus (TAFV), UniProt Q66810 33-676)
T1 sequence: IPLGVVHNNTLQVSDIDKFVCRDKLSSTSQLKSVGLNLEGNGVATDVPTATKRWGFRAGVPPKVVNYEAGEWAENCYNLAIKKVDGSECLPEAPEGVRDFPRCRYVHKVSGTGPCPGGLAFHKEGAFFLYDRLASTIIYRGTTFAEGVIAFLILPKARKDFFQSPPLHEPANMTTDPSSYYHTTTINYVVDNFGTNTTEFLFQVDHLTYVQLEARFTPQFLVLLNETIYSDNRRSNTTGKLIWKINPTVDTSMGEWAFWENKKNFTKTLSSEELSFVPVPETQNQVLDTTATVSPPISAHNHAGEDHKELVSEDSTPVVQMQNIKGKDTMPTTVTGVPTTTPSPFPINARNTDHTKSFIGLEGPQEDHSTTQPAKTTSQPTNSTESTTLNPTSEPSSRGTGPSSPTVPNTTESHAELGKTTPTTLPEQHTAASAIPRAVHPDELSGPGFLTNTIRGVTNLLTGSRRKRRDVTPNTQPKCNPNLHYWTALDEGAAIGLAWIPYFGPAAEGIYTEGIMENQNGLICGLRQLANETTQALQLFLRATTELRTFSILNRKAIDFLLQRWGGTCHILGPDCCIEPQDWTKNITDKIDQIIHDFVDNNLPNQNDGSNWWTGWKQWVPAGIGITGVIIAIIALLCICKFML

T2: RESTV GP on rVSV particles (Reston virus (RESTV), UniProt Q66799 34-677)
T2 sequence: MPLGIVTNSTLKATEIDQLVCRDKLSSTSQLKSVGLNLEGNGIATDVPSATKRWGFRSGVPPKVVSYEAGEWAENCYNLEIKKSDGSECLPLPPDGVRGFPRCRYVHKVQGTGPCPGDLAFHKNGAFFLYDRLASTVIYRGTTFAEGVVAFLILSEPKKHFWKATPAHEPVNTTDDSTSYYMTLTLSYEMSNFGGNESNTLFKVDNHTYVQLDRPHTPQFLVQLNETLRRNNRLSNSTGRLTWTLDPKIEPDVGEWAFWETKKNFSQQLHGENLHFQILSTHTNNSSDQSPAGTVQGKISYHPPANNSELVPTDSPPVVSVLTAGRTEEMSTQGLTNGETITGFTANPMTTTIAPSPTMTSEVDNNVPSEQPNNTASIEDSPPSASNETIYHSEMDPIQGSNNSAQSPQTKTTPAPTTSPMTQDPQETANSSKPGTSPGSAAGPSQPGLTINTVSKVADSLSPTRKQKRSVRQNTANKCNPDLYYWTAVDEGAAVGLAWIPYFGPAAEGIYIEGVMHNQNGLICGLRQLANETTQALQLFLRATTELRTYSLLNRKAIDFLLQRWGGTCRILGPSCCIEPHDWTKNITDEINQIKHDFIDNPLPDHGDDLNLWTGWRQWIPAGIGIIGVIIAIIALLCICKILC

T3: EBOV GP on rVSV particles (Ebola virus (EBOV), UniProt Q05320 33-676)
T3 sequence: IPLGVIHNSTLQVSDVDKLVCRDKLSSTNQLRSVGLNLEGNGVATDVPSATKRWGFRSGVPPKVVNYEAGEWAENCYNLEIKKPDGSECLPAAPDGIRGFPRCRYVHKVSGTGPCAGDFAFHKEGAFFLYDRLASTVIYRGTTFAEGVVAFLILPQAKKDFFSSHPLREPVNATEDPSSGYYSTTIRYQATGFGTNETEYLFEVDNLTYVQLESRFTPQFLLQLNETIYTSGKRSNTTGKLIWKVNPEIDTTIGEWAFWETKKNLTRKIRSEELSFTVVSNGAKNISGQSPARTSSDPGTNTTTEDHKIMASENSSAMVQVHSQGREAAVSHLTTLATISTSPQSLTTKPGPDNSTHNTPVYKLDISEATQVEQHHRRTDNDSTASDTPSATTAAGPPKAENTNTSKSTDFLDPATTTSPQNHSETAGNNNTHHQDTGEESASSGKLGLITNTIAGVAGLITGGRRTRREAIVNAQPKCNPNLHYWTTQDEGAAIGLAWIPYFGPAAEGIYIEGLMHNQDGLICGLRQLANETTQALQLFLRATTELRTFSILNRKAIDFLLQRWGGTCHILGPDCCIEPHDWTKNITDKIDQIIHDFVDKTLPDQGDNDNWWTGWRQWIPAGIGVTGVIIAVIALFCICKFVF

T4: SUDV GP on rVSV particles (Sudan virus (SUDV), UniProt Q66814 33-676)
T4 sequence: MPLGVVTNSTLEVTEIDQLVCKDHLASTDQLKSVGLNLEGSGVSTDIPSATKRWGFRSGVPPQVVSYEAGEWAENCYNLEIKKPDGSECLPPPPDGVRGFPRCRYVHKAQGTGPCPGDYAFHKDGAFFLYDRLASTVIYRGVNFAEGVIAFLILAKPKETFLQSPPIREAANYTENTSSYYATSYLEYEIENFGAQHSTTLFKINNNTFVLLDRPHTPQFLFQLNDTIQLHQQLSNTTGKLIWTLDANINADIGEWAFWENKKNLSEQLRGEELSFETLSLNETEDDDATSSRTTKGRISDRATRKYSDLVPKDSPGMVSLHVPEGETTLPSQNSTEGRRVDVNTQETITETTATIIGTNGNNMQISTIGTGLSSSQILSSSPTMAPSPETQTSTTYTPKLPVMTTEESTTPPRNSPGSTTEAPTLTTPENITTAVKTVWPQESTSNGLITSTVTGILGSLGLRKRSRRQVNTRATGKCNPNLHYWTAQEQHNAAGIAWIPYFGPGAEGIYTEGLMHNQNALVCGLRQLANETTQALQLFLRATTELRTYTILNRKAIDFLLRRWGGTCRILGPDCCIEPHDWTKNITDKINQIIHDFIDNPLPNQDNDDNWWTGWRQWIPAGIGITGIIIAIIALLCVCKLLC


Key:
Test in all cases: cell-based or functional assay
[1] = target: T1, TAFV GP on VSV pseudotype particles
[2] = target: T2, RESTV GP on rVSV particles
[3] = target: BDBV GP on rVSV particles (Bundibugyo virus (BDBV))
[4] = target: T3, EBOV GP on rVSV particles
[5] = target: T4, SUDV GP on rVSV particles

Binder | IC50, half-maximal neutralization of viral infectivity (rVSV-GP) [1] | IC50, half-maximal neutralization of viral infectivity (rVSV-GP) [2] | IC50, half-maximal neutralization of viral infectivity (rVSV-GP) [3] | IC50, half-maximal neutralization of viral infectivity (rVSV-GP) [4] | IC50, half-maximal neutralization of viral infectivity (rVSV-GP) [5]
PE-87 H100A (antibody, V domains shown) VH: QVQLVQSGVTLVQPGGSLRVSCAASGFTFSSYAMSWVRQAPGKGLEWVSAISGLGGSTYYADSVKGRFTISRDNSKNTLYLQMNSLRAEDTAVYYCAKDARVWAAGYHFDYWGQGALVTVSS VL: DIVLTQSPSTLSASVGDRVTITCRASQSISSWLAWYQQKPGEAPKLLISDASSLESGVPSRFSGSGSGTEFTLTISSLQPDDFATYYCQQYYSSPTFGGGTKVEIK | 800 pM | 200 pM | 400 pM | 1000 pM | 1000 pM
PE-87 F109A (antibody, V domains shown) VH: QVQLVQSGVTLVQPGGSLRVSCAASGFTFSSYAMSWVRQAPGKGLEWVSAISGLGGSTYYADSVKGRFTISRDNSKNTLYLQMNSLRAEDTAVYYCAKDHRVWAAGYHADYWGQGALVTVSS VL: DIVLTQSPSTLSASVGDRVTITCRASQSISSWLAWYQQKPGEAPKLLISDASSLESGVPSRFSGSGSGTEFTLTISSLQPDDFATYYCQQYYSSPTFGGGTKVEIK | 2800 pM | 400 pM | 300 pM | 4200 pM | 2100 pM
PE-87 W103A (antibody, V domains shown) VH: QVQLVQSGVTLVQPGGSLRVSCAASGFTFSSYAMSWVRQAPGKGLEWVSAISGLGGSTYYADSVKGRFTISRDNSKNTLYLQMNSLRAEDTAVYYCAKDHRVAAAGYHFDYWGQGALVTVSS VL: DIVLTQSPSTLSASVGDRVTITCRASQSISSWLAWYQQKPGEAPKLLISDASSLESGVPSRFSGSGSGTEFTLTISSLQPDDFATYYCQQYYSSPTFGGGTKVEIK | > 150000 pM | – | > 200000 pM | – | –
PE-87 D99A (antibody, V domains shown) VH: QVQLVQSGVTLVQPGGSLRVSCAASGFTFSSYAMSWVRQAPGKGLEWVSAISGLGGSTYYADSVKGRFTISRDNSKNTLYLQMNSLRAEDTAVYYCAKAHRVWAAGYHFDYWGQGALVTVSS VL: DIVLTQSPSTLSASVGDRVTITCRASQSISSWLAWYQQKPGEAPKLLISDASSLESGVPSRFSGSGSGTEFTLTISSLQPDDFATYYCQQYYSSPTFGGGTKVEIK | > 350000 pM | – | – | > 500000 pM | –
PE-87 V102A (antibody, V domains shown) VH: QVQLVQSGVTLVQPGGSLRVSCAASGFTFSSYAMSWVRQAPGKGLEWVSAISGLGGSTYYADSVKGRFTISRDNSKNTLYLQMNSLRAEDTAVYYCAKDHRAWAAGYHFDYWGQGALVTVSS VL: DIVLTQSPSTLSASVGDRVTITCRASQSISSWLAWYQQKPGEAPKLLISDASSLESGVPSRFSGSGSGTEFTLTISSLQPDDFATYYCQQYYSSPTFGGGTKVEIK | 1000 pM | 200 pM | 200 pM | 600 pM | 1100 pM
PE-87 H108A (antibody, V domains shown) VH: QVQLVQSGVTLVQPGGSLRVSCAASGFTFSSYAMSWVRQAPGKGLEWVSAISGLGGSTYYADSVKGRFTISRDNSKNTLYLQMNSLRAEDTAVYYCAKDHRVWAAGYAFDYWGQGALVTVSS VL: DIVLTQSPSTLSASVGDRVTITCRASQSISSWLAWYQQKPGEAPKLLISDASSLESGVPSRFSGSGSGTEFTLTISSLQPDDFATYYCQQYYSSPTFGGGTKVEIK | 2200 pM | 500 pM | 600 pM | 3200 pM | 2100 pM
PE-87 R101A (antibody, V domains shown) VH: QVQLVQSGVTLVQPGGSLRVSCAASGFTFSSYAMSWVRQAPGKGLEWVSAISGLGGSTYYADSVKGRFTISRDNSKNTLYLQMNSLRAEDTAVYYCAKDHAVWAAGYHFDYWGQGALVTVSS VL: DIVLTQSPSTLSASVGDRVTITCRASQSISSWLAWYQQKPGEAPKLLISDASSLESGVPSRFSGSGSGTEFTLTISSLQPDDFATYYCQQYYSSPTFGGGTKVEIK | 1900 pM | 200 pM | 400 pM | 3200 pM | 1500 pM
PE-87 G106A (antibody, V domains shown) VH: QVQLVQSGVTLVQPGGSLRVSCAASGFTFSSYAMSWVRQAPGKGLEWVSAISGLGGSTYYADSVKGRFTISRDNSKNTLYLQMNSLRAEDTAVYYCAKDHRVWAAAYHFDYWGQGALVTVSS VL: DIVLTQSPSTLSASVGDRVTITCRASQSISSWLAWYQQKPGEAPKLLISDASSLESGVPSRFSGSGSGTEFTLTISSLQPDDFATYYCQQYYSSPTFGGGTKVEIK | 800 pM | 200 pM | 400 pM | 800 pM | 900 pM
PE-87 Y107A (antibody, V domains shown) VH: QVQLVQSGVTLVQPGGSLRVSCAASGFTFSSYAMSWVRQAPGKGLEWVSAISGLGGSTYYADSVKGRFTISRDNSKNTLYLQMNSLRAEDTAVYYCAKDHRVWAAGAHFDYWGQGALVTVSS VL: DIVLTQSPSTLSASVGDRVTITCRASQSISSWLAWYQQKPGEAPKLLISDASSLESGVPSRFSGSGSGTEFTLTISSLQPDDFATYYCQQYYSSPTFGGGTKVEIK | 800 pM | 1300 pM | 800 pM | 3000 pM | > 350000 pM
